From patent US20240029824A1 (University of Washington, published 2024)
Where a chain is given by its changes, count along the chain named.

Experiments:
[1] = molecular target: T1, DHT03_2arm_A21/B21/C long chain B; experiment: co-expression, SEC, native MS, SAXS; chains of one ABC heterotrimer
T1 chain: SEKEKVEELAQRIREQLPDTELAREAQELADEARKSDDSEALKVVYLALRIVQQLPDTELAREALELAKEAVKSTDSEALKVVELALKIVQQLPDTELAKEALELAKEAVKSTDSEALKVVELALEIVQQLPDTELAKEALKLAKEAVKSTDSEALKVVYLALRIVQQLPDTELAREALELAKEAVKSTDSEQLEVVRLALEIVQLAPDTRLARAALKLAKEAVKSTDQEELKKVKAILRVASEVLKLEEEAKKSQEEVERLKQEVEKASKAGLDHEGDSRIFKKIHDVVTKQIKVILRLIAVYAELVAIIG

[2] = molecular target: T2, DHT03 chain C (SEQ ID NO: 59); experiment: X-ray crystal structure, 3.35 A
T2 chain: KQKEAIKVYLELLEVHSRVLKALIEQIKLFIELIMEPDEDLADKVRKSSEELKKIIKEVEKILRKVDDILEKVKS
Experimental: Purified DHT03_2arm_A21/B21/C (long) protein at a concentration of 41 mg/mL was used to conduct sitting drop, vapor-diffusion crystallization trials using the JCSG Core I-IV screens (NeXtal Biotechnologies). Crystals of DHT03_2arm_A21/B21/C long grew from drops consisting of 100 nL protein plus 100 nL of a reservoir solution consisting of 2M (NH4)2SO4, 0.1M sodium acetate pH4.6 at 18° C., and were cryoprotected by supplementing the reservoir solution with 2.2M sodium malonate pH5. Native diffraction data was collected at APS beamline APS-23-ID-B, indexed to P1 and reduced using XDS⁴⁸. The structure was phased by molecular replacement using Phaser™. The chain A of a set of ˜49 lowest energy predicted models from Rosetta™ were used as search models. Several of these models gave clear solutions. Chain B and Chain C were fitted manually in Coot™ and rigid body refinement by Phenix™. The following model building and refinement were done by Coot™ and Phenix™.

[3] = molecular target: T3, DHT03_variant_ABCD-1 chain D; experiment: native MS; loop-connectivity variant of DHT03, chains of one ABCD heterotetramer
T3 chain: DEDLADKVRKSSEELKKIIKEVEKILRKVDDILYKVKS

[4] = molecular target: T2, DHT03 chain C (SEQ ID NO: 59); experiment: tricistronic expression, SEC, native MS; chains of one ABC heterotrimer
Text: Genes encoding 85 heterotrimers in a tricistronic expression vector were obtained, and the proteins were expressed in E. coli and purified via IMAC with only one chain having the 6×His-tag. Nine of the designs (FIG. 3a) had monodisperse SEC peaks (FIG. 3b), were almost exclusively ABC by nMS, and had good SAXS fits to the design models (Table 7). […] Eight of the designs are parallel heterotrimers, while DHTO9 is an antiparallel heterotrimer. […] For 3 other designs, only the ABC heterotrimer was determined to form by nMS (when the respective SEC fraction was analyzed) but the heterotrimer SEC peak was preceded by soluble aggregate that would make building with these constructs difficult downstream. We explored the dependence of cooperativity on connectivity between the three chains by changing the positions of the loops across different helices in DHT03, while keeping the rest of the interface intact. […] The ability to sustain alternate loop closures increases the number of heteromeric building blocks available for future nanostructure assembly applications and may enable rigid fusion of functional domains to the different termini available.
Samples were analyzed by online buffer exchange native mass spectrometry (nMS) to evaluate sample purity and accurately determine oligomeric states⁴². […]

[5] = molecular target: T4, DHT03 chain C (SEQ ID NO: 65); experiment: co-expression, SEC, native MS, SAXS; chains of one ABC heterotrimer
T4 chain: T2 chain with K28L, M35V, E36R, E71Y

[6] = molecular target: T5, DHT03_2arm_A21/B62/C chain B; experiment: as above
T5 chain: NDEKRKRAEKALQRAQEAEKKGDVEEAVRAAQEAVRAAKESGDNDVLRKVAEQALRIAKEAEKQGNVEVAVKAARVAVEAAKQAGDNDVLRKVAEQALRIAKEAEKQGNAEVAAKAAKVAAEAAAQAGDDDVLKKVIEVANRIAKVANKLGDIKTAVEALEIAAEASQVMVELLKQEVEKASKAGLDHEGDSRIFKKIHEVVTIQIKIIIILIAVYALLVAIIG

[7] = molecular target: T6, DHT03_2arm_A21/Bt18/C chain B; experiment: as above
T6 chain: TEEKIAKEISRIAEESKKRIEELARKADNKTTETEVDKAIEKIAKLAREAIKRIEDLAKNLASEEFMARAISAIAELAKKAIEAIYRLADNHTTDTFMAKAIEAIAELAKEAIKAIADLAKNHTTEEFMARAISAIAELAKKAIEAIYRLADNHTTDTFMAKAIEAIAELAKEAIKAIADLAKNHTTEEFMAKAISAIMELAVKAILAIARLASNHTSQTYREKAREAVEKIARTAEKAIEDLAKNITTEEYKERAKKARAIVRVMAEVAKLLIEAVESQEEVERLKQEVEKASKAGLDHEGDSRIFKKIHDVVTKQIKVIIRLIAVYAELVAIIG

[8] = molecular target: T7, DHT03_3arm chain B (B21, SEQ ID NO: 73); experiment: individually purified chains mixed 1:1:1, heat annealed, SEC
T7 construct: separately expressed with an N- or C-terminal 6xHis-tag
T7 chain: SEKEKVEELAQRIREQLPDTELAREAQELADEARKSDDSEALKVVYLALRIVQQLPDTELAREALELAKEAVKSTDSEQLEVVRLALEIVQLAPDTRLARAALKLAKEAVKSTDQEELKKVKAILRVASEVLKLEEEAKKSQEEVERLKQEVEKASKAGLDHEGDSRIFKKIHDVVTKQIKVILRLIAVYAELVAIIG
Text: (§1) To test this idea, an equimolar amount of individually purified A, B, and C of DHT03_2arm_A21/B21/C were mixed together and run through an annealing protocol (see Methods) to allow these interfaces to reassemble in the presence of all components. A monodisperse SEC peak was observed belonging to the ABC heterotrimer state as confirmed by overlap with its SEC co-expressed tricistronic version (FIG. 3d). To explore the use of this approach for building, four different repeat protein fusions to chain C were annealed in the same manner and all four 3-arm heterotrimers were successfully reconstituted. […] The successful reconstitution of these ABC assemblies, following the independent expression and purification of each chain and explicit mixing at a 1:1:1 ratio, enables their use in conjunction with other de novo proteins to mediate the specific assembly of multi-component assemblies. Independent expression also has considerable advantages over tricistronic expression from a gene synthesis perspective as DNA becomes much more difficult and expensive to synthesize with increasing construct size.
(§2) To test whether the DHT03 components could properly assemble in the presence of other helical hairpin containing chains, as would be the case for more complex assemblies, we chose DHD131, a designed helical hairpin unit heterodimer containing buried hydrogen bond networks¹². […] We evaluated simultaneous reconstitution of DHD131 and DHT03_3arm_A21/B21/C82, since the size difference between the two constructs (if correctly assembled) should be detected by SEC. We separately expressed and individually purified the two chains of the heterodimer and the three chains of the heterotrimer, mixed them at a 1:1:1:1:1 ratio, and carried out annealing and SEC as described above.

[9] = molecular target: T8, DHT03_3arm_A21/B21/C82 chain C; experiment: as above
T8 construct: also called chain C DHR82 fusion; chain C of C3-DHT03-01-DHR82 and C4-DHT03-01-DHR82
T8 chain: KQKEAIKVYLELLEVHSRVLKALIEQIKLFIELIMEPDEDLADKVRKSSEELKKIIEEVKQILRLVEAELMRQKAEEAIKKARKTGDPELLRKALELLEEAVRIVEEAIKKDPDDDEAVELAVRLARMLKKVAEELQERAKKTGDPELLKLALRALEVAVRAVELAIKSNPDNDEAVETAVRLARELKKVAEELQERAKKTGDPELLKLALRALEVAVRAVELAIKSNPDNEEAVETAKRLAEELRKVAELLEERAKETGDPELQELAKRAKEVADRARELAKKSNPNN
Text: as §1, §2

[10] = molecular target: T9, DHT03_3arm_A21/B21/C59 chain C; experiment: as above
T9 chain: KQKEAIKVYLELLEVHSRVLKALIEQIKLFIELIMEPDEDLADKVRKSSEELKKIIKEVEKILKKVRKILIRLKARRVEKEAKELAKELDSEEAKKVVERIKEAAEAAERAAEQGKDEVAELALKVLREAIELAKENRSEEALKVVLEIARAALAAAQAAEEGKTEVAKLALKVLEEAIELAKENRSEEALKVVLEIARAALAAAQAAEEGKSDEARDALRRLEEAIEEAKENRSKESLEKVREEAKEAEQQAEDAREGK
Text: as §1, §2

[11] = molecular target: T10, DHT03_3arm_A21/B21/C62 chain C; experiment: as above
T10 chain: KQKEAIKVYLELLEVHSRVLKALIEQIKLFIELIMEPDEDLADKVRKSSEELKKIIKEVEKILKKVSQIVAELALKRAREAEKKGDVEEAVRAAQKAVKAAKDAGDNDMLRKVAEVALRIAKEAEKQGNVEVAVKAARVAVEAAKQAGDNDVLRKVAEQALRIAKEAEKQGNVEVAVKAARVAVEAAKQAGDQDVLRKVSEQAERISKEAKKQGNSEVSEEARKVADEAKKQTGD
Text: as §1, §2

[12] = molecular target: T11, DHT03_3arm_A21/B21/C53 chain C; experiment: as above
T11 chain: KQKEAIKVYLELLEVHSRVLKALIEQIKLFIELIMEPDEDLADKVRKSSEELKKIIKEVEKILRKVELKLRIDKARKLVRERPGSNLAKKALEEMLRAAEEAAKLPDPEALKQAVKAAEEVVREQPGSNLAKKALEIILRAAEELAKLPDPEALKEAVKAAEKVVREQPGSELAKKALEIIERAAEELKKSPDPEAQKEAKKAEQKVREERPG
Text: as §1, §2

[13] = molecular target: T12, DHT03_2arm_A21/B14/C chain B; experiment: co-expression, SEC, native MS, SAXS; chains of one ABC heterotrimer
T12 chain: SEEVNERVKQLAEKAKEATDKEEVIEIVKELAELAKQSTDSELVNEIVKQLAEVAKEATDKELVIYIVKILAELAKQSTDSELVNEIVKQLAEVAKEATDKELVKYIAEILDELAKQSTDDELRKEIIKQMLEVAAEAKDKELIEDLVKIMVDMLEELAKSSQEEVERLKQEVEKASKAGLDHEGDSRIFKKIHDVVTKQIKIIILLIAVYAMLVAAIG

B1: DHT03_2arm_A21/B21/C long chain A (designed binder)
chain: SEKEKVEELAQRIREQLPDTELAREAQELADEARKSDDSEALKVVYLALRIVQQLPDTELAREALELAKEAVKSTDSEALKVVELALKIVQQLPDTELAKEALKLAKEAVKSTDSEALKVVELALEIVQQLPDTELAKEALELAEEAVKSTDSEALKVVKLALEIVQQLPDTELAREALELAKEAVKSTDSEALKVVYLALRIVQQLPDTELARLALELAKKAVEMTAQEVLEIARAALKAAQAFPNTELAELMLRLAEVAARVMKELERNDEEIKKSDELDDESLLEDIVELLKEIIKLWKILVEVSDVMLKLIS
binding result [1]: binds
binding result [2]: binds

B2: DHT03 chain A (designed binder)
chain: PEEEKLKELLKELKKVLDRLKKILERNDEEIKKSDELDDESLLEDIVELLKEIIKLWKILVELSDILLKLIS
binding result [3]: binds
binding result [4]: binds

B3: DHT03 A21 fusion chain A (SEQ ID NO: 63) (designed binder)
chain: SEKEKVEELAQRIREQLPDTELAREAQELADEARKSDDSEALKVVYLALRIVQQLPDTELAREALELAKEAVKSTDSEALKVVYLALRIVQQLPDTELARLALELAKKAVEMTAQEVLEIAKAALKAAQAFPNTELAELMLRLAEVAARVMKELERNDEEIKKSDELDDESLLEDIVELLKEIIKLWKILVEVSDVMLKLIS
binding result [5]: binds
binding result [6]: binds
binding result [7]: binds

B4: DHT03_3arm chain A (A21, SEQ ID NO: 72) (designed binder)
chain: B3 chain with E119A, E170A, E174A, E178R, K181A
notes: separately expressed with an N- or C-terminal 6xHis-tag
binding result [8]: binds
binding result [9]: binds
binding result [10]: binds
binding result [11]: binds
binding result [12]: binds

B5: DHT03 A21 fusion chain A (SEQ ID NO: 66) (designed binder)
chain: B3 chain with E119A
binding result [13]: binds
